Test [1] has as its target soluble Aβ (Aβ42) aggregates (human, unlabeled, biotinylated or 9:1 unlabeled:biotinylated (position of biotin not stated)). Briefly: cell-based or functional assay.
The target in a further test is T1, AβpE3-42 (human, N-terminal pyroglutamate at position 3 of Aβ).
T1 construct: also called pyroglutamate-3 Aβ; pyroglutamate-modified Aβ
Briefly: direct binding to AβpE3-42 (FIG. 27).

In test [2] the target is T2, Aβ1-42 fibrils (human).
T2 construct: Aβ1-42 polypeptide, HFIP-treated, incubated in 10 mM HCl at 37 C for 24 h, pelleted fibrillar fraction, sonicated; Multimeric fibril; also called fibril Aβ42; fibrillar Aβ42
Nature of the test: direct binding to fibrillar Aβ1-42 (FIG. 27).

For test [3], the target named is T2, Aβ1-42 fibrils. Nature of the test: SPR (BIAcore T200); Aβ1-42 fibrils immobilized, antibody as analyte; global 1:1 fit. The method, then:
(§1) Fibrils were immobilized on sensor chip CMS (GE Healthcare Life Sciences) via amine coupling to a level to ensure a maximum binding of analyte of approximately 50 RU. […] Regeneration of the chip surface was accomplished by 2 short injections of 10 mM Glycine-HCl pH 1.7. Data was blank subtracted to both a sensor not containing ligand and 0 nM analyte concentration. Analysis was performed using a global 1:1 fit with BIAcore Insight Evaluation software (v2.0) with bulk refractive index set to zero RU.
In general terms: SPR reads the build-up and loss of mass on a sensor chip optically.

Test [4] has as its target T3, Aβ1-28 (human).
T3 construct: Bought peptide (Bachem); also called Aß1-28 monomer; A131-28
Briefly: SPR (Biacore T200); antibody captured by anti-human Fc, Aβ1-28 as analyte; global 1:1 fit. The method, then:
(§2) Determination of binding affinity of anti-Aß candidates to Aß₁₋₂₈ (Bachem, Torrance, CA) was performed using a Biacore T200. Anti-human Fc antibody was immobilized to a CM3 sensor chip (GE Healthcare Life Sciences) via amine coupling and used to capture Aß antibodies.
(§3) Various concentrations of Aß₁₋₂₈ (analyte, ranging from concentrations of 100 nM down to 0.39 nM, serial diluted 2-fold each dilution step) were passed over the captured ligand at 50 μl/min in running buffer (HBS+0.05% P-20, 1 mg/mL BSA) for 240 s association time and 900 s dissociation time. Data were blank subtracted to both an irrelevant sensor not containing ligand, and buffer runs containing 0 nM analyte concentration. Analysis was performed using a global 1:1 fit with Biacore Evaluation software (v3.0).

Test [5] concerns the target T3, Aβ1-28. Briefly: SPR (Biacore T200); antibody captured by anti-human Fc, Aβ1-28 as analyte; global 1:1 fit; apparent KD. The method, then:
as §2, §3

Test [6] addresses T2, Aβ1-42 fibrils. Briefly: SPR (BIAcore T200); Aβ1-42 fibrils immobilized, antibody as analyte; global 1:1 fit; apparent KD (avidity). The protocol:
as §1

For test [7], the target named is T2, Aβ1-42 fibrils. Nature of the test: competition ELISA; plate coated with fibril Aβ42; competitor hBP-biotin; IC50 of test divided by IC50 of hBP. The method, then:
To generate fibrils, Aβ 1-42 polypeptides, previously treated with HFIP (hexafluoroisopropanol) and dried, were resuspended in DMSO to 5 mM, then further diluted to 100 uM with 10 mM HCl. Samples were incubated at 37° C. for 24 h, and then centrifuged to separate soluble and fibrillar species. The pellet was the resuspended in 1×D-PBS to the original volume and sonicated before use.
Plates were coated with 0.5 mg/ml of fibril Aβ 42 and blocked, e.g., with 1% BSA/PBS. […] 100 ul of GE Streptavidin HRP diluted 1/10,000 was then added and incubated for 30 minutes. Plates were then washed 6× with TTBS. Thermo Fisher o-phenylenediamine dihydrochloride (OPD) substrate was prepared fresh per manufacturers direction, and 100 ul per well was added. The reaction was incubated for 15 minutes and the reaction stopped with 50 ul 2N H₂SO₄.
(In general: In an ELISA, binding on a coated surface is turned into a signal by an enzyme label.)

Test [8] concerns the target T4, Aβ pathology (plaques) in human AD brain tissue (human, UniProt P05067 672-713).
T4 construct: Native tissue deposits, heterogeneous; also called tissue Aβ pathology; Aβ plaques
Briefly: IHC on frozen human AD brain sections, brain AD 11-97; % stained area against antibody concentration (0.03-9 µg/ml). The protocol:
(§4) Tissue Sectioning and Fixation. The unfixed frozen brain tissue samples were embedded in Tissue-Tek OCT (Sakura Finetek) in cryomolds dipped in a mixture of 2-methylbutane and dry ice slurry (−60° C.) then stored at −80° C. until sectioning. Serial 10 μm thick cryosections were generated using a Leica 3050S cryostat. The sections were directly thaw-mounted on positively charged glass slides and were stored at −20° C. until use. Prior to immunohistochemistry IHC procedures, the slides were immersed in 10% neutral buffered formalin solution for 10 minutes at 4° C., rinsed in PBS, then incubated for an hour at 37° C. in a glucose oxidase solution (20 mM beta D(+) glucose, 2 mM sodium azide, and 2 units/mL glucose oxidase in 1×PBS). The slides were rinsed 3 times for 5 minutes in PBS before they were transferred onto staining racks for processing in an automated stainer.
(§5) Antibody biotinylation. The humanized IgG antibodies were biotinylated using a non-covalent method, by means of incubation with a biotin-conjugated goat anti-human monovalent fab fragment (Jackson ImmunoResearch) in a ratio of 1:4, for 1 hour at room temperature. Unbound excess Fab was absorbed by pre-incubation with human serum for an additional hour before use. The freshly prepared antibodies were then loaded into the stainer for immediate application to tissue sections.
(§6) Immunostaining. The staining was performed in an automated Leica Bond Rx Stainer (Leica Biosystems), using the Bond Research Kit (DS980, Leica Biosystems) and the avidin-biotin amplified immuno-peroxidase detection system. Each biotinylated anti-Aβ antibody, or a human IgG control, was applied to the sections, at specified concentrations, for one hour and the staining was visualized using the avidin-biotin amplification system (ABC Elite Standard, PK-6100; Vector Laboratories). Hematoxylin counter-staining of nuclei was subsequently applied to sections before dehydration in an ascending series of alcohols, clearing in xylene, cover-slipping, and air-drying.

Test [9] addresses T4, Aβ pathology (plaques) in human AD …. Nature of the test: IHC on frozen human AD brain sections, brain AD 13-75; % stained area against antibody concentration (0.03-9 µg/ml). The method, then: as §4, §5, §6
The target is the same in test [10]. Nature of the test: IHC on frozen human AD brain sections, brain AD 14-11; % stained area against antibody concentration (0.03-9 µg/ml). The protocol: as §4, §5, §6
The target is the same in test [11]. Briefly: IHC on frozen human AD brain sections, brain AD 15-19; % stained area against antibody concentration (0.03-9 µg/ml). The method, then: as §4, §5, §6
The target in test [12] is soluble Aβ oligomers (Example 8) (UniProt P05067 672-713, biotin on the biotinylated preparation and on one tenth of the 9:1 mixture (position not given)). Briefly: direct ELISA; plate coated with soluble Aβ oligomers, antibody titrated. The protocol: The samples were incubated for 2 hours at room temperature. Plates were washed 4 times with TBS. 0.1% tween 20. Goat anti-human (H+L) HRP (Jackson Immunoresearch, PA) was diluted 1/5000 in 0.1% BSA/PBS 0.1% tween 20, added at 100 μl/well and incubated 1 hour at room temperature. Plates were washed 4 times and o-phenylenediamine dihydrochloride tablets (ThermoFisher) were prepared as per manufacturer instructions. 100 μl was added per well and incubated for 15 minutes at room temperature. […] Curves and resulting EC₅₀ estimations represent nonlinear 3-parameter least-squares fit of data using GraphPad Prism software.

Substitutions are numbered along the chain they refer to. Where “and” joins values, the source holds several entries; their conditions need not be identical. Equal entries are not always repeated.

T4 sequence (P05067 672-713): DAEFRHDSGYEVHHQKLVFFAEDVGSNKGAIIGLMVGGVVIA
T2 sequence (peptide, as listed by the source): as the sequence (P05067 672-713) above
T3 sequence (peptide, as listed by the source): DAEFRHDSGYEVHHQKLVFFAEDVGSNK
Sequence of soluble Aβ oligomers (Example 8) (P05067 672-713): as the sequence (P05067 672-713) above
Sequence of soluble Aβ (Aβ42) aggregates (human, unlabeled, biotinylated or 9:1 unlabeled:biotinylated (position of biotin not stated)) (peptide, as listed by the source): as the sequence (P05067 672-713) above
T1 sequence (peptide, as listed by the source): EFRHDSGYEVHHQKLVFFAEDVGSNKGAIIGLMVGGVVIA

B1: h2731 (antibody, V domains shown)
VH: EVQLLESGGGLVQPGGSLRLSCAASGFTFSNYGMSWVRQAPGKGLEWVASIRSGSGRTYYSDNVKGRFTISRDNSKNTLYLQMNSLRAEDTAVYYCVRYDHYSGSSDYWGQGTLVTVSS
VL: DVVMTQSPLSLPVTLGEPASISCKSSQSLLDYDGKTYLNWLLQKPGQSPQRLIYRVTNRDTGVPDRFSGSGSGTDFTLKISRVEAEDVGVYYCWQGTHFPRSFGQGTKVEIK
notes: Humanized IgG mAb; Only the variable domains are tied to the construct
The EC50 is the concentration that produces a half-maximal response. In general, koff refers to a measure of how fast the partners let go of each other. A high value points to fast dissociation. The term kon denotes the second-order rate constant of association. For the molecule B1, the “blockade of binding of soluble Aβ to rat hippocampal neurons at 1:50 molar mAb:Aβ42 ratio” value in test [1] was greater than 90%. The binding result with AβpE3-42 is recorded as “no binding (tested: 100 ng/ml)”. In addition, the EC50 with Aβ1-42 fibrils [2] is 0.0081 µg/mL and 0.054 nM. For the same molecule, the off-rate (koff) with Aβ1-42 fibrils [3] stood at 2.62e-05 s⁻¹; in the test with Aβ1-28 [4], 0.000595 s⁻¹. The kon with Aβ1-42 fibrils [3] turned out to be 372000 M⁻¹ s⁻¹; in the test with Aβ1-28 [4], 119000 M⁻¹ s⁻¹. The values for the Kd with Aβ1-28 [5] and with Aβ1-42 fibrils [6] were 5.01 nM and 0.0704 nM, respectively. In the test with Aβ1-42 fibrils [7], the “IC50 ratio (test:hBP)” value worked out at 0.61 ratio. Moreover, the “Area Under Curve” value was 50.6 in test [8], 150 in test [9], 149 in test [10] and 52.7 in test [11].

B2: h2931 (antibody, V domains shown)
VH: B1 VH with Y32F, I51V, S103T, S105T
VL: B1 VL
notes: also called PB-0576
With B2, the EC50 in test [12] is 0.023 µg/mL and 0.15 nM. Moreover, the values for the off-rate constant (koff) with Aβ1-42 fibrils [3] and with Aβ1-28 [4] were 2.05e-05 s⁻¹ and 0.000412 s⁻¹, respectively. Besides, the kon with Aβ1-42 fibrils [3] amounted to 335000 M⁻¹ s⁻¹; in the test with Aβ1-28 [4] it was 94700 M⁻¹ s⁻¹. Besides, the Kd with Aβ1-28 [5] turned out to be 4.35 nM; with Aβ1-42 fibrils [6], 0.0612 nM. In addition, the “IC50 ratio (test:hBP)” value with Aβ1-42 fibrils [7] was 0.59 ratio. Further, the “Area Under Curve” value was 47.7 in test [8], 139 in test [9], 134 in test [10] and 44.8 in test [11].

Source of the values: US20230331828A1 (published 2023).
